Common to all, as to assay: cryo-EM structure
In assay [1] the target is B41 HT2 soluble Env heterotrimer (two B41 SOSIP.664 protomers, one D7324-tagged B41-D368R SOSIP.664 protomer) (HIV-1 (clade B, B41)).
The target in assay [2] is BG505 HT1 soluble Env heterotrimer (two BG505-D368R SOSIP.664 protomers, one D7324-tagged BG505 SOSIP.664 protomer) (HIV-1 (clade A, BG505)).
Assay [3] has as its target BG505 HT2 soluble Env heterotrimer (two BG505 SOSIP.664 protomers, one D7324-tagged BG505-D368R SOSIP.664 protomer) (HIV-1 (clade A, BG505)).
Assay [4] has as its target BG505 HT1 soluble Env heterotrimer (two BG505-D368R SOSIP.664 protomers, one D7324-tagged BG505 SOSIP.664 protomer) (HIV-1 (clade A, BG505)). This is another data set of the same source.
For assay [5], the target named is BG505 HT2 soluble Env heterotrimer (two BG505 SOSIP.664 protomers, one D7324-tagged BG505-D368R SOSIP.664 protomer) (HIV-1 (clade A, BG505)). The source holds these as a separate data set.

Where “and” joins values, the source holds several entries; their conditions need not be identical. Identical values can stand only once. Like-named read-outs stand apart in the source and are kept apart here.

Regarding “CD4 (as used in the cryo-EM complex with B41 HT2; version not stated) (from UniProt P01730 26-396) (receptor)”, the stoichiometry N in assay [1] was 2.
“CD4 D1-D4 (domains 1-4), soluble (receptor)”: the stoichiometry N in assay [2] was 3; in assay [3], 3; in assay [4], 1; in assay [5], 2 and 1.

Values taken from paper PMC10686819.
